Patent US20100086958A1, “NOVEL ENZYME” (priority 2008, published 2010)
Residue numbers refer to the chain shown, from its start. Names and notes keep the numbering of the source. Where two headings read alike, the source gives them in different places.

What was measured:
[1] = Steady state kinetics for formate oxidation; type: biochemical; conditions: formate oxidation with NAD^+
Experimental: (§1) BcenFDH1 (Bsp184FDH) and BspFDH2 (Bsp383FDH) catalyzed oxidation of formate to CO2 was monitored by UV/Vis spectrophotometry in a 96-well plate format. A series of eight solutions of formate (0-200 mM) were prepared by successive dilutions of a stock solution of 0.5 M sodium formate in 0.1 M sodium phosphate buffer, pH 7.0. From this series, 170 μL was transferred into wells of the 96-well plate. 10 μL of the FDHs from a stock solution (64.1 μM for BcenFDH1 (Bsp184FDH) and 78.0 μM for BspFDH2 (Bsp383FDH)) were added into each well and equilibrated for 3 min at 30° C. The reaction was initiated by addition of 20 μL of NAD^+ or NADP^+ solution from a freshly prepared stock (10 mM) using an 8-channel pipette. The plate was then immediately placed into the plate reader. The plate was shaken for 5 s to ensure thorough mixing, and then time-based measurements were recorded every 15 s for 10 min. The rate of formate oxidation was calculated using an extinction coefficient of 3.38 mM^−1 (for 200 μL), which was determined using NADH standards. Km and Vmax values were obtained by non-linear regression to the Michaelis-Menten equation (Eq.1 below) using Origin v7 (Microcal Software Inc.).

[2] = Steady state kinetics for NADP^+ (FDH-catalysed formate oxidation); type: biochemical; conditions: cofactor NADP^+, 0.18M formate
Experimental: as §1
(§2) Similar procedure were used for determination of Michaelis-Menten parameters for NAD^+ and NADP^+. A series of eight solutions of cofactor (0-75 mM) were prepared by successive dilutions of stock solutions. […] of sodium formate solutions (180 mM in well) were transferred into wells of the 96-well plate. 10 μL of the FDHs from a stock solution (64.1 μM for BcenFDH1 (Bsp184FDH) and 78.0 μM for BspFDH2 (Bsp383FDH)) were added into each well and equilibrated for 3 min at 30° C. The reaction was initiated by addition of 20 μL of NAD^+ or NADP^+ solutions using an 8-channel pipette. The plate was then immediately placed into the plate reader. The plate was shaken for 5 s to ensure thorough mixing, and then time-based measurements were recorded every 15 s for 10 min. The rate of formate oxidation was calculated using an extinction coefficient of 3.38 mM^−1 (for 200 μL), which was determined using NADH standards. Km and Vmax values were obtained by non-linear regression to the Michaelis-Menten equation as before.

[3] = Steady state kinetics for NAD^+ (FDH-catalysed formate oxidation); type: biochemical
Experimental: as §1, §2

[4] = cited from earlier work; for activity with NADP^+ / activity with NAD^+: unit = μmol formate oxidized per min, literature
[5] = Serov et al. (2002), cited from earlier work; for Km: read-out: Km NADP^+
[6] = cited from earlier work; for Km: read-out: Km NAD^+
[7] = 0.25 M formate, Serov et al. (2002)
[8] = 0.5 M formate, Serov et al. (2002)

B1: CmetFDH: NADH-dependent wild-type FDH from Candida methylica, Seq ID No: 6 (protein, listed as Candida methylica)
chain: MKIVLVLYDAGKHAADEEKLYGCTENKLGIANWLKDQGHELITTSDKEGETSELDKHIPDADIIITTPFHPAYITKERLDKAKNLKSVVVAGVGSDHIDLDYINQTGKKISVLEVTGSNVVSVAEHVVMTMLVLVRNFVPAHEQIINHDWEVAAIAKDAYDIEGKTIATIGAGRIGYRVLERLLPFNPKELLYYDYQALPKEAEEKVGARRVENIEELVAQADIVTVNAPLHAGTKGLINKELLSKFKKGAWLVNTARGAICVAEDVAAALESGQLRGYGGDVWFPQPAPKDHPWRDMRNKYGAGNAMTPHYSGTTLDAQTRYAEGTKNILESFFTGKFDYRPQDIILLNGEYVTKAYGKHDKK
[1]
  Km: 8.29 ± 1 mM
  kcat: 419.25 ± 17.57 min⁻¹
[2]
  Km: 7 ± 1.4 mM
  kcat NADP^+: 0.30 ± 0.0 min⁻¹
[3]
  formate oxidation, times more effective with NAD^+ than with NADP^+: 1.7×10^4 times
[3]; cofactor NAD^+, 0.18M formate
  Km: 200 µM
  kcat NAD^+: 100 ± 2 min⁻¹

B2: C. bodinii D195S/Y196H: D195S/Y196H mutant of C. bodinii FDH (protein, UniProt O13437 1-364, looked up, variant D195S Y196H)
Formate dehydrogenase: B1 chain with S87L, D195S, Y196H
[4]
  activity with NADP^+: 0.19 U/mg
  activity with NAD^+: 1.3 U/mg

B3: C. bodinii D195S/Y196H/K356T: D195S/Y196H/K356T mutant of C. bodinii FDH (protein, UniProt O13437 1-364, looked up, variant D195S Y196H K356T)
Formate dehydrogenase: B1 chain with S87L, D195S, Y196H, K356T
[4]
  activity with NADP^+: 0.36 U/mg
  activity with NAD^+: 1.3 U/mg

B4: C. bodinii D195S: D195S mutant of C. bodinii FDH (protein, UniProt O13437 1-364, looked up, variant D195S)
Formate dehydrogenase: B1 chain with S87L, D195S
[4]
  activity with NADP^+: 0.083 U/mg
  activity with NAD^+: 1.5 U/mg

B5: CboFDH: wild type FDH from Candida Boidinii, Seq ID No: 13 (protein, listed as Candida boidinii)
chain: B1 chain with E50G, T51N, E53V, K56Q, L79I, N84K, S87L, L184V, E202D, E325Q
[4]
  activity with NADP^+: 0.0013 U/mg
  activity with NAD^+: 2.2 U/mg

B6: D197A/Y198R SceFDH: D197A/Y198R mutant of S. cerevisiae FDH, data from Serov et al. (2002) (protein, UniProt Q08911 1-376, looked up, variant D197A Y198R)
Formate dehydrogenase 1: MSKGKVLLVLYEGGKHAEEQEKLLGCIENELGIRNFIEEQGYELVTTIDKDPEPTSTVDRELKDAEIVITTPFFPAYISRNRIAEAPNLKLCVTAGVGSDHVDLEAANERKITVTEVTGSNVVSVAEHVMATILVLIRNYNGGHQQAINGEWDIAGVAKNEYDLEDKIISTVGAGRIGYRVLERLVAFNPKKLLYYARQELPAEAINRLNEASKLFNGRGDIVQRVEKLEDMVAQSDVVTINCPLHKDSRGLFNKKLISHMKDGAYLVNTARGAICVAEDVAEAVKSGKLAGYGGDVWDKQPAPKDHPWRTMDNKDHVGNAMTVHISGTSLDAQKRYAQGVKNILNSYFSKKFDYRPQDIIVQNGSYATRAYGQKK
[5]; 0.25 M formate
  kcat NADP^+: 0.13 ± 0.01 s⁻¹
  Km: 4.5 ± 0.5 mM
[5]; 0.5 M formate
  kcat NADP^+: 0.16 ± 0.02 s⁻¹
  Km: 7.6 ± 0.9 mM
[6]; [7]
  kcat NAD^+: 0.095 ± 0.01 s⁻¹
  Km: 7.6 ± 0.8 mM
[6]; [8]
  kcat NAD^+: 0.12 ± 0.02 s⁻¹
  Km: 8.4 ± 0.9 mM

B7: PseFDH: FDH from Pseudomonas sp. 101, Seq ID No: 3 (protein, listed as Pseudomonas sp.)
chain: MAKVLCVLYDDPVDGYPKTYARDDLPKIDHYPGGQTLPTPKAIDFTPGQLLGSVSGELGLRKYLESNGHTLVVTSDKDGPDSVFERELVDADVVISQPFWPAYLTPERIAKAKNLKLALTAGIGSDHVDLQSAIDRNVTVAEVTYCNSISVAEHVVMMILSLVRNYLPSHEWARKGGWNIADCVSHAYDLEAMHVGTVAAGRIGLAVLRRLAPFDVHLHYTDRHRLPESVEKELNLTWHATREDMYPVCDVVTLNCPLHPETEHMINDETLKLFKRGAYIVNTARGKLCDRDAVARALESGRLAGYAGDVWFPQPAPKDHPWRTMPYNGMTPHISGTTLTAQARYAAGTR
[4]; Tishkov et al. (1991)
  formate oxidation, times more effectively with NAD^+ than with NADP^+: 2400 times
[4]
  activity with NAD^+: 6-8 U/mg
[6]; data from Serov et al. (2002)
  kcat NAD^+: 10.0 ± 0.6 s⁻¹
  Km: 0.06 ± 0.005 mM

B8: SceFDH: FDH from S. cerevisiae, Seq ID No: 4 (protein, listed as Saccharomyces cerevisiae)
chain: MSKGKVLLVLYEGGKHAEEQEKLLGCIENELGIRNFIEEQGYELVTTIDKDPEPTSTVDRELKDAEIVITTPFFPAYISRNRIAEAPNLKLCVTAGVGSDHVDLEAANERKITVTEVTGSNVVSVAEHVMATILVLIRNYNGGHQQAINGEWDIAGVAKNEYDLEDKIISTVGAGRIGYRVLERLVAFNPKKLLYYDYQELPAEAINRLNEASKLFNGRGDIVQRVEKLEDMVAQSDVVTINCPLHKDSRGLFNKKLISHMKDGAYLVNTARGAICVAEDVAEAVKSGKLAGYGGDVWDKQPAPKDHPWRTMDNKDHVGNAMTVHISGTSLDAQKRYAQGVKNILNSYFSKKFDYRPQDIIVQN
[6]; data from Serov et al. (2002)
  kcat NAD^+: 6.5 ± 0.4 s⁻¹
  Km: 0.036 ± 0.005 mM
